According to PMC12999518 (Nature Structural & Molecular Biology, 2026):

B2: Gtr2 (natural protein, yeast, UniProt P53290 1-341, looked up)
chain: MSLEATDSKAMVLLMGVRRCGKSSICKVVFHNMQPLDTLYLESTSNPSLEHFSTLIDLAVMELPGQLNYFEPSYDSERLFKSVGALVYVIDSQDEYINAITNLAMIIEYAYKVNPSINIEVLIHKVDGLSEDFKVDAQRDIMQRTGEELLELGLDGVQVSFYLTSIFDHSIYEAFSRIVQKLIPELSFLENMLDNLIQHSKIEKAFLFDVNSKIYVSTDSNPVDIQMYEVCSEFIDVTIDLFDLYKAPVLRNSQKSSDKDNVINPRNELQNVSQLANGVIIYLRQMIRGLALVAIIRPNGTDMESCLTVADYNIDIFKKGLEDIWANARASQAKNSIEDDV
B3: Npr2 (natural protein, yeast (endogenous, TB50 background), UniProt P39923 1-615, looked up)
chain: MLSYFQGFVPIHTIFYSVFHPTEGSKIKYEFPPNNLKNHGINFNTFKNYIIPKPILCHKLITFKYGTYRIVCYPVTINSPIYARNFFSFNFVFVFPYDCETSPYEPAITRLGKMFKVLEEQNQLLSKSERDPVFFDLKVLENSTTTPSTAGPSSTPNPSSNTTPTHPTSEKDTKDMRSSRYSDLIKDLGLPQSAFSIQDLLMRIFQDLNNYSECLIPIDEGNAVDIKIFPLLRPPTTCVSLEDVPLSSVNLKKIIDVNWDPTMMSIVPYIDGLNSIAKISKLSNSDPGLVIECIRHLIYYKCVTLSDIFQFSNIYAPSSLIRNFLTDPLMASDCQSYVTFPEVSKISNLPLNKSLGSGDQDSPSFSVRRKSKSSSIPSNPDSRTTSFSSTSRVSQNSSLNSSFSSIYKDWRQSQTSCSSSNIHVINNRNRFLPTRSCLFDLYRSLSQGQTLKTWYESKYMILKENNIDIRRFITFGLEKRIIYRCYSFPVMINAGSREPKEMTPIITKDLVNNDKLLEKRNHNHLLSATGSRNTAQSGNLKPERPSKVSFEMQRVSSLATGKSTMPKLSDEEEGILEESIRNAETFDKICVLLSKPKLEVESYLNELGEFKVINS

Columns and labels:
Assay in all cases: cryo-EM structure
Gtr2 = biological target: B2
Npr2 = biological target: B3
Sea1 = Sea1 (yeast (endogenous, TB50 background), UniProt P47170 1-1584)
Sea1, sequence (P47170 whole entry): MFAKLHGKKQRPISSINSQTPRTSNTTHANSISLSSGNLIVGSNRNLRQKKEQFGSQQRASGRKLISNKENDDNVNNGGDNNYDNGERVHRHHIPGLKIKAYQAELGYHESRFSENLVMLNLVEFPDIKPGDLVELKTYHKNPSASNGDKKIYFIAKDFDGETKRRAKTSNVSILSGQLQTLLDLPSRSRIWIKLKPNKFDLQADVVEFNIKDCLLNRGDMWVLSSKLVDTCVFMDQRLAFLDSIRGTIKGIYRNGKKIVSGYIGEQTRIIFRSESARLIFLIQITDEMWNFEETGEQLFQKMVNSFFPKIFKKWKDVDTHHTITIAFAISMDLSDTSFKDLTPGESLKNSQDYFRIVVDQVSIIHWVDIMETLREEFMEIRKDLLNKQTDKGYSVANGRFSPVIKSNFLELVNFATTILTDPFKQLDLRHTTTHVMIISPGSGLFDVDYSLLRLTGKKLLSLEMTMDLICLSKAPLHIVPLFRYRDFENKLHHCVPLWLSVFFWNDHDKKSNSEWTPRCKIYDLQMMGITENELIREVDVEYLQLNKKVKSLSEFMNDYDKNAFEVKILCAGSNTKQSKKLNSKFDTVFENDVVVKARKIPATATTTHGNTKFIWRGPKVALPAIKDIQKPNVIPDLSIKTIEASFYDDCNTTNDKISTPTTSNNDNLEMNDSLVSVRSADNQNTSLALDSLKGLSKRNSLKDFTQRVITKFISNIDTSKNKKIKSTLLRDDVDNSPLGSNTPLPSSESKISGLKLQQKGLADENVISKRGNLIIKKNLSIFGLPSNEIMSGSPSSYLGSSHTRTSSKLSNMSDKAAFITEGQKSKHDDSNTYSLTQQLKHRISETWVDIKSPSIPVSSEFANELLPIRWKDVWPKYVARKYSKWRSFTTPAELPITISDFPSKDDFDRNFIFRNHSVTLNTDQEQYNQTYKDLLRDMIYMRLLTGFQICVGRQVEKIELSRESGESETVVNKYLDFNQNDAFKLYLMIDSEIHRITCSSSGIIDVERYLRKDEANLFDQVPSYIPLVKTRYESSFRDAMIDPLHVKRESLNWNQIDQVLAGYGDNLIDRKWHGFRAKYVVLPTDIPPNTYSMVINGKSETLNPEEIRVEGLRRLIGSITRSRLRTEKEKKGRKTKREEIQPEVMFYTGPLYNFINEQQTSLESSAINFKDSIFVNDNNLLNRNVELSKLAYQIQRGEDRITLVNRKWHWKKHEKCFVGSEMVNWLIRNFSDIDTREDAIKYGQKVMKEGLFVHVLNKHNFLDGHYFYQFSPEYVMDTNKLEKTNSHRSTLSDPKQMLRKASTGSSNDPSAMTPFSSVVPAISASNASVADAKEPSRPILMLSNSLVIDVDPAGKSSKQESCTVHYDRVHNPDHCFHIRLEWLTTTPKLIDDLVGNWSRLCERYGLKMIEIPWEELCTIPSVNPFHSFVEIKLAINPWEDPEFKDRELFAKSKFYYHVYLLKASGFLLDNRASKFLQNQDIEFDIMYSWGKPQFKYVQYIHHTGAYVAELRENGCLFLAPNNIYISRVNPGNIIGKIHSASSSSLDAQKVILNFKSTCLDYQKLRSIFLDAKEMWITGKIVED

Sea3 = biological target: T1, Sea3 (yeast (endogenous, TB50 background), UniProt Q03897 1-1148)
T1 sequence (looked up): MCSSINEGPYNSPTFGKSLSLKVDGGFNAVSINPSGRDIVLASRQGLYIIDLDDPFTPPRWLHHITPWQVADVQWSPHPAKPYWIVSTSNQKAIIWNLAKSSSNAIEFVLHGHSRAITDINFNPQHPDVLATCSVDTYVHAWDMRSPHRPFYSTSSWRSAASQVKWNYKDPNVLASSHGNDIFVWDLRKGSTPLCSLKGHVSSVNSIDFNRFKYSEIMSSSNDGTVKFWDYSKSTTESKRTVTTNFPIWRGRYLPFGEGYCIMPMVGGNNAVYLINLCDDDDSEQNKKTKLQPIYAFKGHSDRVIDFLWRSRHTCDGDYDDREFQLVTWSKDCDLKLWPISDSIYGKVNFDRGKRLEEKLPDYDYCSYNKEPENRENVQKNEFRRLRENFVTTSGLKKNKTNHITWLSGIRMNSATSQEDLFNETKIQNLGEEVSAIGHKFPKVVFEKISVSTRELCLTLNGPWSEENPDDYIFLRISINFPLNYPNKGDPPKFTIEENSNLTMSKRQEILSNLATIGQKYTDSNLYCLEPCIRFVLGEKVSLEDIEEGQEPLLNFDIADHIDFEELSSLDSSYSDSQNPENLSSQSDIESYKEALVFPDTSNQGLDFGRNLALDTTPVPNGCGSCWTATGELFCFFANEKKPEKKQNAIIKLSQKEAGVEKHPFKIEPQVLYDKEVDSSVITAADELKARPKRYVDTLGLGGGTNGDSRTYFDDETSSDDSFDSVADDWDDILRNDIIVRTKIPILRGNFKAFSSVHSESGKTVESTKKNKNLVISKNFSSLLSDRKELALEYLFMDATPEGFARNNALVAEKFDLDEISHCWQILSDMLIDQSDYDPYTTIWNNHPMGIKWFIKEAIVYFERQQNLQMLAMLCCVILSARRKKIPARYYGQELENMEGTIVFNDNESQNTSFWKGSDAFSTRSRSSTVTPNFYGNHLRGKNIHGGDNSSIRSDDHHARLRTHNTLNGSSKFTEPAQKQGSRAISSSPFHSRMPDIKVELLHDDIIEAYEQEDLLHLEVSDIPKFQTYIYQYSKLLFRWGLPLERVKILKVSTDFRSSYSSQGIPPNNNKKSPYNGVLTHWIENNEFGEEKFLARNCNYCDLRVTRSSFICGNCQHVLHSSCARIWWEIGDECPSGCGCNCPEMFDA

B1: Gtr1 (natural protein, yeast, UniProt Q00582 1-310, looked up)
chain: MSSNNRKKLLLMGRSGSGKSSMRSIIFSNYSAFDTRRLGATIDVEHSHLRFLGNMTLNLWDCGGQDVFMENYFTKQKDHIFQMVQVLIHVFDVESTEVLKDIEIFAKALKQLRKYSPDAKIFVLLHKMDLVQLDKREELFQIMMKNLSETSSEFGFPNLIGFPTSIWDESLYKAWSQIVCSLIPNMSNHQSNLKKFKEIMNALEIILFERTTFLVICSSNGENSNENHDSSDNNNVLLDPKRFEKISNIMKNFKQSCTKLKSGFKTLILNNNIYVSELSSNMVCFIVLKDMNIPQELVLENIKKAKEFFQ
binding result (Gtr2): binds | binding result (Npr2): binds

B2
binding result (Sea1): binds

B3
binding result (Sea3): binds
